Columns and labels:
[1] = target: CaV1.2 (α1C) L-type calcium channel subunit; test: cell-based or functional assay
[2] = target: T1, Protein A Sepharose CL-4B (Pharmacia) (UniProt P38507 37-477); test: immunoprecipitation from HEK293 lysates with protein-A beads only, Western blot with anti-HA Ab
T1 construct: Used alone (without anti-CaV1.2 antibody) as the negative control of the reciprocal immunoprecipitation; also called protein-A beads
Procedure: Formation of a stable complex of α₂δ-4 with other channel subunits was tested by coimmunprecipitation. The α₂δ-4 subunit was first tagged with an HA epitope and co-transfected with CaV1.2 (α1C) and β₃ subunits into HEK cells. Co-immunoprecipitation was carried out with transient transfected HEK 293 cells by constructs of α1C, β₃ and α₂δ-4 tagged with HA epitope. Two days after the transfection, the cells (from two 150 mm plates) were harvested and washed with PBS. The cells were then resuspended in 2 ml of detergent extraction buffer: 1% (vol/vol) Nonidet P-40, 0.5% deoxycholate, 150 mM NaCl, 5 mM EDTA, 50 mM Tris-HCl (pH 8.0) and 20 μl of protease inhibitor cocktail (Sigma), followed 10 passages each through 20 and 26-gauge needles. Cell extracts were cleared by centrifugation. […] After incubated at 4° C. for overnight, the beads were precipitated by brief centrifugation, and washed 3 times with 1 ml of lysis buffer. Finally, 100 μl of 1×SDS loading buffer were added, and 20 μl were subjected to 4-20% SDS. The co-precipitated subunits were then analyzed by Western blot with indicated antibodies.

Row | binding result [2] | Binder | Ca^2+ influx (fluorescence change after depolarization with 50 mM KCl) in transfected HEK 293 cells [1] [fold]
1 |  | human calcium channel α2δ-4 subunit (other) MAVALGTRRRDRVKLWADTFGGDLYNTVTKYSGSLLLQKKYKDVESSLKIEEVDGLELVRKFSEDMENMLRRKVEAVQNLVEAAEEADLNHEFNESLVFDYYNSVLINERDEKGNFVELGAEFLLESNAHFSNLPVNTSISSVQLPTNVYNKDPDILNGVYMSEALNAVFVENFQRDPTLTWQYFGSATGFFRIYPGIKWTPDENGVITFDCRNRGWYIQAATSPKDIVILVDVSGSMKGLRMTIAKHTITTILDTLGENDFVNIIAYNDYVHYIEPCFKGILVQADRDNREHFKLLVEELMVKGVGVVDQALREAFQILKQFQEAKQGSLCNQAIMLISDGAVEDYEPVFEKYNWPDCKVRVFTYLIGREVSFADRMKWIACNNKGYYTQISTLADTQENVMEYLHVLSRPMVINHDHDIIWTEAYMDSKLLSSQAQSLTLLTTVAMPVFSKKNETRSHGILLGVVGSDVALRELMKLAPRYKLGVHGYAFLNTNNGYILSHPDLRPLYREGKKLKPKPNYNSVDLSEVEWEDQAESLRTAMINRETGTLSMDVKVPMDKGKRVLFLTNDYFFTDISDTPFSLGAVLSRGHGEYILLGNTSVEEGLHDLLHPDLALAGDWIYCITDIDPDHRKLSQLEAMIRFLTRKDPDLECDEELVREVLFDAVVTAPMEAYWTALALNMSEESEHVVDMAFLGTRAGLLRSSLFVGSEKVSDRKFLTPEDEASVFTLDRFPLWYRQASEHPAGSFVFNLRWAEGPESAGEPMVVTASTAVAVTVDKRTAIAAAAGVQMKLEFLQRKFWAATRQCSTVDGPYTQSCEDSDLDCFVIDNNGFILISKRSRETGRFLGEVDGAVLTQLLSMGVFSQVTMYDYQAMCKPSSHHHSAAQPLVSPISAFLTATRWLLQELVLFLLEWSVWGSWYDRGAEAKSVFHHSHKHKKQDPLQPCDTEYPVFVYQPAIREANGIVECGPCQKVFVVQQIPNSNLLLLVTDPTCDCSIFPPVLQEATEVKYNASVKCDRMRSQKLRRRPDSCHAFHPEVRVEADRGWAGFSSPNPLCLGLCPCRQEHIGMPMNTPVPVLLGGNIRVYAL | 6
2 | no binding | human calcium channel α2δ-4 subunit tagged with HA epitope (other, not shown: small tags and cut ends, Expressed by transient co-transfection with CaV1.2 (α1C) and β3 in HEK293 cells and tested in detergent lysates; also called α2δ-4(HA)) MAVALGTRRRDRVKLWADTFGGDLYNTVTKYSGSLLLQKKYKDVESSLKIEEVDGLELVRKFSEDMENMLRRKVEAVQNLVEAAEEADLNHEFNESLVFDYYNSVLINERDEKGNFVELGAEFLLESNAHFSNLPVNTSISSVQLPTNVYNKDPDILNGVYMSEALNAVFVENFQRDPTLTWQYFGSATGFFRIYPGIKWTPDENGVITFDCRNRGWYIQAATSPKDIVILVDVSGSMKGLRMTIAKHTITTILDTLGENDFVNIIAYNDYVHYIEPCFKGILVQADRDNREHFKLLVEELMVKGVGVVDQALREAFQILKQFQEAKQGSLCNQAIMLISDGAVEDYEPVFEKYNWPDCKVRVFTYLIGREVSFADRMKWIACNNKGYYTQISTLADTQENVMEYLHVLSRPMVINHDHDIIWTEAYMDSKLLSSQAQSLTLLTTVAMPVFSKKNETRSHGILLGVVGSDVALRELMKLAPRYKLGVHGYAFLNTNNGYILSHPDLRPLYREGKKLKPKPNYNSVDLSEVEWEDQAESLRTAMINRETGTLSMDVKVPMDKGKRVLFLTNDYFFTDISDTPFSLGAVLSRGHGEYILLGNTSVEEGLHDLLHPDLALAGDWIYCITDIDPDHRKLSQLEAMIRFLTRKDPDLECDEELVREVLFDAVVTAPMEAYWTALALNMSEESEHVVDMAFLGTRAGLLRSSLFVGSEKVSDRKFLTPEDEASVFTLDRFPLWYRQASEHPAGSFVFNLRWAEGPESAGEPMVVTASTAVAVTVDKRTAIAAAAGVQMKLEFLQRKFWAATRQCSTVDGPYTQSCEDSDLDCFVIDNNGFILISKRSRETGRFLGEVDGAVLTQLLSMGVFSQVTMYDYQAMCKPSSHHHSAAQPLVSPISAFLTATRWLLQELVLFLLEWSVWGSWYDRGAEAKSVFHHSHKHKKQDPLQPCDTEYPVFVYQPAIREANGIVECGPCQKVFVVQQIPNSNLLLLVTDPTCDCSIFPPVLQEATEVKYNASVKCDRMRSQKLRRRPDSCHAFHPEVRVEADRGWAGFSSPNPLCLGLCPCRQEHIGMPMNTPVPVLLGGNIRVYAL | 
